The results in this text go back to article PMC7080496.

For assay [1], the target named is Adenosine A2A receptor (A2AAR), human, residues 1 to 316, with the M1A/M4T mutation, reconstituted in rHDLs (nanodiscs) (human) (UniProt P29274).
Assay [2] has the same target. The source holds these as a separate data set.
Assay [3] shares this target. The source holds these as a separate data set.

Chain of heterotrimeric G protein consisting of human Gαs, bovine Gβ1, and human Gγ2 (P63092 whole entry): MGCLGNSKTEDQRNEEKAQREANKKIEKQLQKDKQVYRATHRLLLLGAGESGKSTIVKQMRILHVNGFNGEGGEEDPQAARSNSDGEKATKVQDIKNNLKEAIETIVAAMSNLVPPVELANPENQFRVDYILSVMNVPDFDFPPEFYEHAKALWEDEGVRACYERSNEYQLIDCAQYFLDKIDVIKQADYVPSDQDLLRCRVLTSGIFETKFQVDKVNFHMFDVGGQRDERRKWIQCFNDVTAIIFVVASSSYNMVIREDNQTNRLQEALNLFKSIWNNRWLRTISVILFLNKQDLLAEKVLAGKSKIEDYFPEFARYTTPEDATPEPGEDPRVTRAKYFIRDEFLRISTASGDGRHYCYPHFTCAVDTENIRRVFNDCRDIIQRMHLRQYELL
Chain of heterotrimeric G protein consisting of human Gαs, bovine Gβ1, and human Gγ2 (P62871 whole entry): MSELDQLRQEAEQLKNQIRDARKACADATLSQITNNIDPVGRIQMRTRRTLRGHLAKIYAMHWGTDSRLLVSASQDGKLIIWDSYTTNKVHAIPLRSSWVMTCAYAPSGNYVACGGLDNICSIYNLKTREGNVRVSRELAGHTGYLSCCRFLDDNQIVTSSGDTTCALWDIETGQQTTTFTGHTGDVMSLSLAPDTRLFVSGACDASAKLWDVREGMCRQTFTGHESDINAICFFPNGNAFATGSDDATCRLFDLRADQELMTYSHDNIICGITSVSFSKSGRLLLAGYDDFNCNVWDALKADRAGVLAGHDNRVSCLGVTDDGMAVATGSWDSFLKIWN
Chain of heterotrimeric G protein consisting of human Gαs, bovine Gβ1, and human Gγ2 (P59768 whole entry): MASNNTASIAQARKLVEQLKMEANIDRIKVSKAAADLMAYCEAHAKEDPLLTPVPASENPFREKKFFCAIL
Chain of Adenosine A2A receptor (A2AAR), human, residues 1 to 316, with the M1A/M4T mutation, reconstituted in rHDLs (nanodiscs) (human) (P29274 1-316 M1A/M4T): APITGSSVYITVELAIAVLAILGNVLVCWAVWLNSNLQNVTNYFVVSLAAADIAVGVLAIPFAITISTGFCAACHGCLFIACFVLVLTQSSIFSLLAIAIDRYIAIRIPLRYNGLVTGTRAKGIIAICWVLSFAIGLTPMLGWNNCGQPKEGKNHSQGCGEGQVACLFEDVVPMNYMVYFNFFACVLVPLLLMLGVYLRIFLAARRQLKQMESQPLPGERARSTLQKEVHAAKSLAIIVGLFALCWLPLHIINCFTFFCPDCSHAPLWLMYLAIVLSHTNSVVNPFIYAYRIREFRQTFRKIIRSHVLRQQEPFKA

In the case of “heterotrimeric G protein consisting of human Gαs, bovine Gβ1, and human Gγ2 (from UniProt P63092 1-394; P62871 1-340; P59768 1-71) (complex)”, the GDP/GTP reaction rate, A2AAR in rHDL(DHA) against A2AAR in rHDL(ARA) in assay [1] stood at 1.7 fold. In assay [2], this substance displayed an initial [35S]-GTPγS binding rate, A2AAR in rHDL(ARA) against A2AAR in rHDL(POPC/POPG), full agonist of 1.1 times and an initial [35S]-GTPγS binding rate, A2AAR in rHDL(DHA) against A2AAR in rHDL(POPC/POPG), full agonist of 1.88 times. In addition, the initial [35S]-GTPγS binding rate, A2AAR in rHDL(DHA) in which DHA constitutes 15% of the acyl chains, against A2AAR in rHDL(POPC/POPG) in assay [3] turned out to be 1.29 times.
